# Measured values from PMC10786891, “Massively parallel profiling of RNA-targeting CRISPR-Cas13d”.
# T1: EsCas13d, nuclease-dead (Eubacterium siraeum, UniProt B0MS50, R295A;H300A;R849A;H854A)
# T1 sequence: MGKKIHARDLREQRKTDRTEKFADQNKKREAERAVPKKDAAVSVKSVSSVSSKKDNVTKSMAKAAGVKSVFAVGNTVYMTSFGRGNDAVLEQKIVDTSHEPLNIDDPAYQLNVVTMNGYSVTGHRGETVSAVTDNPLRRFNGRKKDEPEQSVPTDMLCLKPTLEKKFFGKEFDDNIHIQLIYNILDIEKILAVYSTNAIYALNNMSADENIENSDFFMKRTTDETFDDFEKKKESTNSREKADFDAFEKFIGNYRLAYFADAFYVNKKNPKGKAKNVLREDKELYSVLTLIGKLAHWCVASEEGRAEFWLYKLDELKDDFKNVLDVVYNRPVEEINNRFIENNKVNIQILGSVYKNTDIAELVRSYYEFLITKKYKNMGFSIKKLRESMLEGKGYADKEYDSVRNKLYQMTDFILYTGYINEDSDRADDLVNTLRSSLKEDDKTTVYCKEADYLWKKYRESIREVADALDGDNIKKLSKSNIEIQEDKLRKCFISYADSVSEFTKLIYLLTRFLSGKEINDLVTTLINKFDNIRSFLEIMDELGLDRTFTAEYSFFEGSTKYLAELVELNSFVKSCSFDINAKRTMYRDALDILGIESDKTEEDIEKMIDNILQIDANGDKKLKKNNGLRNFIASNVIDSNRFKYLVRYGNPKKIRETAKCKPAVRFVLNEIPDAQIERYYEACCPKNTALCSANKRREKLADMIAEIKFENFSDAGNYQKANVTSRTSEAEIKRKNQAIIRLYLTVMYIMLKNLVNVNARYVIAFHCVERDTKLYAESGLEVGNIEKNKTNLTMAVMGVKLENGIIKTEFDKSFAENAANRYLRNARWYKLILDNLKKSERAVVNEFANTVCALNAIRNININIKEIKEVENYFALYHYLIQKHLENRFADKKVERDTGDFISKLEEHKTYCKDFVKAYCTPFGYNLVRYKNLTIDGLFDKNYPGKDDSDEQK
# Target: T1, EsCas13d, nuclease-dead
# Test: crRNA (strand 1, pre-loaded); Mg2+; 40 mM Tris-HCl pH 7.5, 150 mM NaCl, 6 mM MgCl2, 1 mM DTT, 0.1% Tween-20, 0.2 mg/ml BSA; 25 C; 10 min per concentration, then washed
# Conditions: tags: His6-TwinStrep-SUMO cleaved; N-terminal SNAP kept (SNAP-Surface 488); label: 3' end held by stalled T7 RNA polymerase
row,Binder,Kd
1,"target 1 insU 3' of 4,insA 3' of 3 (mixed) RNA 1: CACCCGUGCAAAAAUGCAGGGGUCUAAAACUGAGCGGAUAACCUCUCUAUGG RNA 2: GGGAAUGGAUCCACAUCUACGAAUUCGUACCAUAGAGAGGUUAUCCGCUUACACCGAGAUCGGAAGAGCACACGU",8 ± 0.3 nM
2,target 2 MT 5'PFS ACC 3'PFS AGA (mixed) RNA 1: CACCCGUGCAAAAUUGCAGGGGUCUAAAACCUUCUCCAAAUUGUUUCAUCCU RNA 2: GGGAAUGGAUCCACAUCUACGAAUUCACCAGGAUGAAACAAUUUGGAGAAGAGAAGAUCGGAAGAGCACACGU,7.9 ± 3.1 nM
3,target 2 MT 5'PFS CAC 3'PFS CAC (mixed) RNA 1: CACCCGUGCAAAAUUGCAGGGGUCUAAAACCUUCUCCAAAUUGUUUCAUCCU RNA 2: GGGAAUGGAUCCACAUCUACGAAUUCCACAGGAUGAAACAAUUUGGAGAAGCACAGAUCGGAAGAGCACACGU,2.9 ± 0.4 nM
4,target 2 MT 5'PFS GUA 3'PFS ACC (mixed) RNA 1: CACCCGUGCAAAAUUGCAGGGGUCUAAAACCUUCUCCAAAUUGUUUCAUCCU RNA 2: GGGAAUGGAUCCACAUCUACGAAUUCGUAAGGAUGAAACAAUUUGGAGAAGACCAGAUCGGAAGAGCACACGU,22 ± 4 nM
5,target 2 MT 5'PFS GCU 3'PFS CAU (mixed) RNA 1: CACCCGUGCAAAAUUGCAGGGGUCUAAAACCUUCUCCAAAUUGUUUCAUCCU RNA 2: GGGAAUGGAUCCACAUCUACGAAUUCGCUAGGAUGAAACAAUUUGGAGAAGCAUAGAUCGGAAGAGCACACGU,9.8 ± 2.5 nM
6,target 2 MT 5'PFS CUG 3'PFS CAA (mixed) RNA 1: CACCCGUGCAAAAUUGCAGGGGUCUAAAACCUUCUCCAAAUUGUUUCAUCCU RNA 2: GGGAAUGGAUCCACAUCUACGAAUUCCUGAGGAUGAAACAAUUUGGAGAAGCAAAGAUCGGAAGAGCACACGU,2.4 ± 0.4 nM
7,target 2 MT 5'PFS AAA 3'PFS AUG (mixed) RNA 1: CACCCGUGCAAAAUUGCAGGGGUCUAAAACCUUCUCCAAAUUGUUUCAUCCU RNA 2: GGGAAUGGAUCCACAUCUACGAAUUCAAAAGGAUGAAACAAUUUGGAGAAGAUGAGAUCGGAAGAGCACACGU,4.4 ± 0.8 nM
8,target 2 MT 5'PFS UGG 3'PFS CGA (mixed) RNA 1: CACCCGUGCAAAAUUGCAGGGGUCUAAAACCUUCUCCAAAUUGUUUCAUCCU RNA 2: GGGAAUGGAUCCACAUCUACGAAUUCUGGAGGAUGAAACAAUUUGGAGAAGCGAAGAUCGGAAGAGCACACGU,5.4 ± 0.8 nM
9,target 2 MT 5'PFS GUA 3'PFS ACA (mixed) RNA 1: CACCCGUGCAAAAUUGCAGGGGUCUAAAACCUUCUCCAAAUUGUUUCAUCCU RNA 2: GGGAAUGGAUCCACAUCUACGAAUUCGUAAGGAUGAAACAAUUUGGAGAAGACAAGAUCGGAAGAGCACACGU,10.7 ± 1.6 nM
10,target 2 MT 5'PFS UGG 3'PFS CGC (mixed) RNA 1: CACCCGUGCAAAAUUGCAGGGGUCUAAAACCUUCUCCAAAUUGUUUCAUCCU RNA 2: GGGAAUGGAUCCACAUCUACGAAUUCUGGAGGAUGAAACAAUUUGGAGAAGCGCAGAUCGGAAGAGCACACGU,5.8 ± 0.4 nM
11,target 2 MT 5'PFS GUA 3'PFS ACG (mixed) RNA 1: CACCCGUGCAAAAUUGCAGGGGUCUAAAACCUUCUCCAAAUUGUUUCAUCCU RNA 2: GGGAAUGGAUCCACAUCUACGAAUUCGUAAGGAUGAAACAAUUUGGAGAAGACGAGAUCGGAAGAGCACACGU,10.6 ± 0.9 nM
12,target 2 MT 5'PFS GUA 3'PFS ACU (mixed) RNA 1: CACCCGUGCAAAAUUGCAGGGGUCUAAAACCUUCUCCAAAUUGUUUCAUCCU RNA 2: GGGAAUGGAUCCACAUCUACGAAUUCGUAAGGAUGAAACAAUUUGGAGAAGACUAGAUCGGAAGAGCACACGU,15.9 ± 2.7 nM
13,target 2 MT 5'PFS UGU 3'PFS UAC (mixed) RNA 1: CACCCGUGCAAAAUUGCAGGGGUCUAAAACCUUCUCCAAAUUGUUUCAUCCU RNA 2: GGGAAUGGAUCCACAUCUACGAAUUCUGUAGGAUGAAACAAUUUGGAGAAGUACAGAUCGGAAGAGCACACGU,25 ± 4 nM
